Literature values as cited in article PMC5450005.
Where two headings read alike, the source gives them in different places.

Legend:
[1] = target: ApelinR (Rattus norvegicus) (UniProt Q9JHG3)
[2] = target: ApelinR (Rattus norvegicus) (UniProt Q9JHG3); remark: listed apart in the source

Chain of UniProt Q9JHG3 (Q9JHG3 whole entry): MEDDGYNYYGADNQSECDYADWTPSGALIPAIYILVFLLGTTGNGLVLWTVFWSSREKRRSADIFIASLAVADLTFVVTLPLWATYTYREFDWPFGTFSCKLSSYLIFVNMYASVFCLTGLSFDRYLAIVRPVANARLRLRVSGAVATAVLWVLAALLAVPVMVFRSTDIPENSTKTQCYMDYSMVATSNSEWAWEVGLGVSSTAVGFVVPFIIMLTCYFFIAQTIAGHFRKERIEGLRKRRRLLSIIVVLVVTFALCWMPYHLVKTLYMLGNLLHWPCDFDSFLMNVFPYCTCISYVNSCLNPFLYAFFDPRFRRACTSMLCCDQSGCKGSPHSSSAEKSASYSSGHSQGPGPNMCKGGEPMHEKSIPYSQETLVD

| Ki [1] [pM] | Ki [2] [pM] | Substance |
| --- | --- | --- |
| 560 |  | pE13F (apelin-13) (from UniProt Q9ULZ1) |
|  | 60 | K17F (apelin-17) (from UniProt Q9ULZ1) |
